Consider 21 variants from the RNAGym collection of RNA variant scans (doi:10.1073/pnas.2313332121).

The labels stand for the following.
B1: TPR t1 (parent)
chain: GACCAAUCUGCCCUCAGAGCUCGAGAACAUCUUCGGAUGCAGAGGAGGCAGGCUUCGGUGGCGCGAUAGCGCCAACGUCCUCAACCUCCAAUGCAUCCCACCACAUGAUGAUGCCUGAAGAGCCUUGGUUUUUUG

Variants of B1 are the subject of this series. The experiment in a line: polymerase ribozyme fitness, log enrichment relative to wild type (log ratio); higher = more active; in vitro selection for triplet polymerase activity. An outline of the steps:
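One round of in vitro selection, in triplicate, was applied to PCR-built, transcribed mutant libraries of each subunit of a heterodimeric triplet polymerase ribozyme. The steps were annealing with a biotinylated primer, partner subunit and triplets, incubation frozen at −7 °C, gel excision of extended constructs, streptavidin-bead capture and RT-PCR. Fitness is the logarithm, base 2, of genotype enrichment over wild-type enrichment from inverse-variance-weighted replicate averages of Illumina-sequenced inputs and outputs, keeping genotypes with ≥10 input reads and ≥1 read per output.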
Take GACCAAUCUGCCCUCAGAGCUCGAGCAGAUCUUCGGAUGCAGAGGAGGCAGUCUUCGGUGGCGCGAUAGCGCCAACGUCCUCAACCUUCAAUGCAUCCCACCACAUGAUGAUGCCUGAAAAGCCUUGGUUUUUUG [A26C C28G G52U C88U G120A]: the “polymerase ribozyme fitness (log ratio)” value is -5.8. Turning to GACCAAUCUGCCCUCAGAGCUCGAGCACAUCUUCAGAUGCAGAGGAGGCAGGCUUCGGUGUCGCGAUAGCGCCAACGUCCUCAACCUCCAAUGCAUCGCACCACAUGAUGAUGCCUGAAGAGCUUUGGUUUUUUG [A26C G35A G61U C98G C124U], the “polymerase ribozyme fitness (log ratio)” value was -6.78. To GACCAAUCUGCCCUCAGAGCUCGAGCACAUCUUCGGAUGCAGAGGAGGCAGGCUUCGGUGGCGCGAUAGCGUCAACGUCCUCAACCUCCAAUGCAUCCCACCACAUGAUGAUGCCUGAAGAGCCUUGGUUUUUUG [A26C C72U] belongs -5.89.

As for GACCAAUCUGCCCUCAGAGCUCGAGCACAUCUUCGGAUUCAGAGGAGGCAGGCUUCGGUGGCGCGAUAGCGCCAACGUCCUCAACCUCCAAUGCAUCCCACCACAUGAUGAUGGCUGAAGAGCCUUGGUUUUUUG [A26C G39U C114G], the “polymerase ribozyme fitness (log ratio)” value was -6.59.

For GACCAAUCUGCCCUCAGAGCUCGAUAACAUCUUCGGAUGCAGAGGAGGCAGGCUUCGGUGGCGCGAUAGCGCCAACGUCCUCAACCUCCAAUGCAUCCCACCAUAUGAUGAUGCCUGAAGAGCCUUGGUUUUUUG [G25U C104U], the “polymerase ribozyme fitness (log ratio)” value was -5.92. To GACCAAUCUGCCCUCAGAGCUCGAUAACAUGUUCGGAUGCAGAGGAGGCAGGCUGCGGUGGCGCGAUAGCCCCAACGUCCUCAACCUCCAAUGCAUCCCACCACAUGAUGAUGCAUGAUGAACCUUGGUUUUUUG [G25U C31G U55G G71C C115A A119U G122A] belongs -6.9; to GACCAAUCUGCCCUCAGAGCUCGAUAACAUCUUCGGAUGCAGAGGAGGCAGGCUUCGGUGGCGAGAUAGCGCCAACGUCCUCAACCUCCAAUGCAUCGCACCACAUGAUGUUGCCUGAAGAGCCUUGGUUUUUUG [G25U C64A C98G A111U], -8.01; to GACCAAUCUGCCCUCAGAGCUCGAGCACAUCUUCGGAUGCAGAGGAGGCAGGCUUCGGUGCCGCGAUAGCGCCAACGUCCUCAACCUCCAAUGCAUCCCACCACAUGAUGAGGCCUGAAGAGCCUUGGUUUUUUG [A26C G61C U112G], -5.78. The same measure for GACCAAUCUGCCCUCAGAGCUCGAGCACAUCUUCCGAUUCAGAGGAGGCAGGCUUCGGUGGCGCGAUAGCGCCAACGUCCUCAACCUCCCAUGCAUCCCACCACAUGAUGAUGCCUUAAGAGCCUUGGUUUUUUG [A26C G35C G39U A90C G117U]: -7.41; for GACCAAUCUGCCCUCAGAGCUCGAGCACAUCUUCGGAUGCAGAGGACGCAGGCUUCGGUGGCGCGAUAGCGCCAACGUCCUCAACCUCCAAUGCAUCCCACCACAUGAUGAAGCCUGAAGAGCCUUGGUUUUUUG [A26C G47C U112A]: -4.78. To GACCAAUCUGCCCUCAGAGCUCGAGCACAUCUUCGAAUGCAGAGGAGGCAGGCUUCGGUGACGCGAUAGCGCCAACGUCCUCAACCUCCAAUGCAUCCCACCACAUGAUGAUGCCUGAAGAGCCUUGGUUUUUUG [A26C G36A G61A] belongs -5.9; to GACCAAUCUGCCCUCAGAGCUCGAGGACAUCUUCGGUUGCAUAGGAGGCAGGCUUCGGUGGCGCGAUAGCGACAACGUCCUCAACCUCCAAUGCAUCCCACCACAUGAUGAUGCCUGAACAGCCUUGGUUUUUUG [A26G A37U G42U C72A G120C], -2.36; to GACCAAUCUGCCCUCAGAGCUCGAUAACAUCGUCGGAUGCAGAGGAGGCAGGCUUCGGUGGCGCGAUAGCGACAACGUCCUCAACCUCCAAUGCAUCCCACCACAUGAUAAUGCCUGAAGAGCCUUGGUUUUUUG [G25U U32G C72A G110A], -6.9. With GACCAAUCUGCCCUCAGAGCUCGAGCACAUCUUCGGAUGCAGAGGAGGCAGGAUUCGGUGGCGCGAUAGCGCCAACGUCCUCAACCUCCAAUGCAUCCCACCACAUGAUGAGGCCUGAAGAGCCUUGGUUUUUUG [A26C C53A U112G], the “polymerase ribozyme fitness (log ratio)” value is -5.53. The same measure for GACCAAUCUGCCCUCAGAGCUCGAGCACAUCUUCGGAUGCAGAGGAGGCAGGCUUGGGUGGCGCGAUAGCGCCAACGUCCUCAACCUCCAAUGCAUCCCACCACAUGAUGAUGCCUGAAGAGCCUUGGUUUUUUG [A26C C56G]: -5.43; for GACCAAUCUGCCCUCAGAGCUCGAUAACAUCUUCGGAUGCAGAGGAGGCAGGCUUCGGUGGCGCGAUAGCGCCAACGUCCUCAACCUCCAAUGUAUCCCAUCACAUGAUGAUACCUGAAGAGCAUUGGUUUUUUG [G25U C94U C101U G113A C124A]: -7.17. To GACCAAUCUGCCCUCAGAGCUCGAGCACAUCUUCGGAUGCAGAGGAGGCAGGCUUCGGUGGCGCGAUACCGCCAACGUCCUCAACCUCCAAUGCAUCCCACCACAUGAUGAUGCCUCAAGAGCCUUGGUUUUUUG [A26C G69C G117C] belongs -6.27. For the variant GACCAAUCUGCCCUCAGAGCUCGAGCACAUCUUCGGAUGCAGAGGAGGCAGGCUUUGGUGACUCGAUAGCGCCAACGUCCUCAACCUCCAAUGCAUCCCACCACAUGAUGAUGCUUGAAGAGCCUUGGGUAUUUG [A26C C56U G61A G63U C115U U129G U131A], the “polymerase ribozyme fitness (log ratio)” value is -4.23. For GACCAAUCUGCCCUCAGAGCUCGAGCACAUCUUCGGAUGCAGAGGGGGCAGGCUUCGGUGGCGCGAUAUCGCCUACGUCCUCAACCUCCAAUGCAUCCCACCACAUGAUGAUGCCUGAAGAGCCUUGGUUUUUUG [A26C A46G G69U A74U], the “polymerase ribozyme fitness (log ratio)” value was -5.53. Take GACCAAUCUGCCCUCAGAGCUCGAGCACAUCUUCGGAUGCAGAGGAGGAAGGCUUCGGUGGCGCGAUAGCGCCAACGUCCUCAACCUCCAAUGCAUCUCACCACAUGAUGAUGUCUGAAGAGCCUUGGUUUUUUG [A26C C49A C98U C114U]: the “polymerase ribozyme fitness (log ratio)” value was -6.14. The same measure for GACCAAUCUGCCCUCAGAGCUCGAUAACAUCUUCGGAUGCAGAGGAGGCAGGCUUGGGUGGCGCGAUAGCGCCAACGUCCUCAACCUCCAAUGCAUCCCACCACAUGAUGAUGCCUGAAGAGCCUUGGUUUUUUG [G25U C56G]: -5.61.
